{
  "source": "patent US20120240246A1",
  "about": "“Variant Calpastatins and Variant Calpains for Modulating the Activity or Stability of Calpain” (St. Jude Children's Research Hospital, priority 2009, published 2012)",
  "molecules": {"B1": {"name": "calpastatin: 72 kDa endogenous calpain inhibitor with L domain and four 15-kDa inhibitory repeats (protein, listed as Rattus norvegicus)", "chain": "MESTLNKLSDKSGVNAALDDLIDTLGECEDTNKDDPPYTGPVVLDPMDSTYLEALGIKEGTIPPEYRKLLEKNEAITGPLPDSPKPMGIDHAIDALSSDFTCSSPTGKQTEKEKSTGESS"}, "B2": {"name": "R417A: rat m-calpain with R417A substitution in DIII of the 80 kDa subunit (protein, UniProt Q07009 20-700; Q64537 1-270, looked up, variant R417A)", "Calpain-2 catalytic subunit": "SHERAIKYLNQDYETLRNECLEAGALFQDPSFPALPSSLGFKELGPYSSKTRGIEWKRPTEICADPQFIIGGATRTDICQGALGDCWLLAAIASLTLNEEILARVVPLDQSFQENYAGIFHFQFWQYGEWVEVVVDDRLPTKDGELLFVHSAEGSEFWSALLEKAYAKINGCYEALSGGATTEGFEDFTGGIAEWYELRKPPPNLFKIIQKALEKGSLLGCSIDITSAADSEAVTYQKLVKGHAYSVTGAEEVESSGSLQKLIRIRNPWGQVEWTGKWNDNCPSWNTVDPEVRANLTERQEDGEFWMSFSDFLRHYSRLEICNLTPDTLTCDSYKKWKLTKMDGNWRRGSTAGGCRNYPNTFWMNPQYLIKLEEEDEDDEDGERGCTFLVGLIQKHRARQRKMGEDMHTIGFGIYEVPEELTGQTNIHLSKNFFLTTRARERSDTFINLREVLNRFKLPPGEYVLVPSTFEPHKNGDFCIRVFSEKKADYQTVDDEIEANIEEIEANEEDIGDGFRRLFAQLAGEDAEISAFELQTILRRVLAKREDIKSDGFSIETCKIMVDMLDEDGSGKLGLKEFYILWTKIQKYQKIYREIDVDRSGTMNSYEMRKALEEAGFKLPCQLHQVIVARFADDELIIDFDNFVRCLVRLEILFKIFKQLDPENTGTIQLDLISWLSFSVL", "Calpain small subunit 1": "MFLVNSFLKGGGGGGGGGGLGGGLGNVLGGLISGAAGGGGGGGGGGGMGLGGGGGGGGTAMRILGGVISAISEAAAQYNPEPPPPRSHYSNIEANESEEERQFRKLFVQLAGDDMEVSATELMNILNKVVTRHPDLKTDGFGIDTCRSMVAVMDSDTTGKLGFEEFKYLWNNIKKWQGIYKRFDTDRSGTIGSNELPGAFEAAGFHLNQHIYSMIIRRYSDETGNMDFDNFISCLVRLDAMFRAFRSLDKNGTGQIQVNIQEWLQLTMYS"}, "B3": {"name": "R420A: rat m-calpain with R420A substitution in DIII of the 80 kDa subunit (protein, UniProt Q07009 20-700; Q64537 1-270, looked up, variant R420A)", "Calpain-2 catalytic subunit": "B2 Calpain-2 catalytic subunit with A398R, R401A", "Calpain small subunit 1": "B2 Calpain small subunit 1"}, "B4": {"name": "R469A: rat m-calpain with R469A substitution in DIII of the 80 kDa subunit (protein, UniProt Q07009 20-700; Q64537 1-270, looked up, variant R469A)", "Calpain-2 catalytic subunit": "B2 Calpain-2 catalytic subunit with A398R, R450A", "Calpain small subunit 1": "B2 Calpain small subunit 1"}, "B5": {"name": "repeat 1: 86-residue rat calpastatin inhibitory repeat 1 (residues 134-219), expressed in E. coli (protein, UniProt P27321 134-219, looked up, fragment)", "chain": "SKTKFQDAPSADGESVAGGVTVATASDKVVVKKKEKKSLTPTLPMESTLNKLSDKSGVNAALDDLIDTLGECEDTNKDDPPYTGPV", "modifications": "inhibitory repeat 1"}},
  "key": {"m-calpain [1]": {"molecular_target": "T1, m-calpain (Rattus norvegicus, UniProt Q07009)", "T1 construct": "diminishing activity >1,000-fold compared to full-length m-calpain; His6 (C); made in house; host or cells: E. coli", "T1 sequence (Q07009 1-700)": "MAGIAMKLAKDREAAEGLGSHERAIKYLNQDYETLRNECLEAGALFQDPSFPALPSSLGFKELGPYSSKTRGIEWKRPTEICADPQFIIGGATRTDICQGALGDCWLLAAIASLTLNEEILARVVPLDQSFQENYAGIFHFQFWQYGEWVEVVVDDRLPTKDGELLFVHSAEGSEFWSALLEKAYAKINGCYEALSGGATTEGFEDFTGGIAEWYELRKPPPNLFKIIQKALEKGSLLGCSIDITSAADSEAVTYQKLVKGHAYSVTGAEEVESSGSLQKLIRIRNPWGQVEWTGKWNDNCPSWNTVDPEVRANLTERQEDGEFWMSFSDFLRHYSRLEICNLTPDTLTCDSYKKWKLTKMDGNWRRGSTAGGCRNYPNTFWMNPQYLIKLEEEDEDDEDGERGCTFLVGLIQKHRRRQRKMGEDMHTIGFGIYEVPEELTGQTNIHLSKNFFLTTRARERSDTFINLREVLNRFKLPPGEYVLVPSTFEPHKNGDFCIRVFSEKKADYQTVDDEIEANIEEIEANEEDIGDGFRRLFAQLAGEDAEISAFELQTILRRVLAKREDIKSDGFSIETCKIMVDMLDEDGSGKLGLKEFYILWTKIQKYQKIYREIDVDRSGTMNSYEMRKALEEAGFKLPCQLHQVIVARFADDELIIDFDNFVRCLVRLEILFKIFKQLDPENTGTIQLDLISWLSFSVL", "T1 sequence (Q64537 87-270 partner limits assumed)": "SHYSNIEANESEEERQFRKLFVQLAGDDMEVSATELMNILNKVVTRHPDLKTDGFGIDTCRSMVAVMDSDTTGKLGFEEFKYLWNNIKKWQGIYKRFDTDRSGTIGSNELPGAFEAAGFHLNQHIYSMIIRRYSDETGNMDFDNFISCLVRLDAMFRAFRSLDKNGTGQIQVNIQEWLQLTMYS", "assay": "Calpastatin inhibition assay, hydrolysis by m-calpain", "assay_type": "biochemical", "conditions": "for IC50 values toward m-calpain (in words): derived from initial rate analysis", "procedure": "(§1) Calpastatin Inhibition Assays. Hydrolysis assays by m-calpain (1 nM or 20 nM), m-calpain mutants (1 nM) and μI-II (1.25-2.5 μM) were performed in 100-μl volumes containing 50 mM HEPES (pH 7.5), 200 mM NaCl, 1 mM DTT, various concentrations of substrate (0-1.5mM SLY-MCA (Sigma) or 0-50 μg/ml BODIPY-casein (Invitrogen)) and increasing inhibitor concentrations: 0-50 nM wild-type or mutant full-length calpastatin, fragments AB and BC, 0-20 μM peptide B1 for m-calpain, and 0-750 μM peptide B1 for μI-II. Duplicates or triplicates were performed for each condition in 96-well plates using a Molecular Devices microplate reader."}, "[2]": {"molecular_target": "protease core from µ-calpain (µI-II) (UniProt P97571)", "sequence (P97571 29-356 limits assumed)": "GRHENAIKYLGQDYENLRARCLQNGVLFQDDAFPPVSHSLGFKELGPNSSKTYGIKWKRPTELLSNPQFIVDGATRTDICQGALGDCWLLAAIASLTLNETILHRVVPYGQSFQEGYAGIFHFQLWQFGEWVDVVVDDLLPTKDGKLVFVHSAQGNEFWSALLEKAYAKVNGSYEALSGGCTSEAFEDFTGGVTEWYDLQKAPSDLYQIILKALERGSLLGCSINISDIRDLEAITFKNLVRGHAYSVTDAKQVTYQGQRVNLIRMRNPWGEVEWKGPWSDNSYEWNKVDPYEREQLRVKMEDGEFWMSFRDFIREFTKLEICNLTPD", "assay": "cell-based or functional assay"}, "[3]": {"molecular_target": "T2, μI-II (protease core from μ-calpain) (Rattus norvegicus, UniProt P97571)", "T2 construct": "the protease core from μ-calpain (μI-II) were expressed in E. coli; made in house; host or cells: E. coli", "T2 sequence (P97571 55-354 limits assumed)": "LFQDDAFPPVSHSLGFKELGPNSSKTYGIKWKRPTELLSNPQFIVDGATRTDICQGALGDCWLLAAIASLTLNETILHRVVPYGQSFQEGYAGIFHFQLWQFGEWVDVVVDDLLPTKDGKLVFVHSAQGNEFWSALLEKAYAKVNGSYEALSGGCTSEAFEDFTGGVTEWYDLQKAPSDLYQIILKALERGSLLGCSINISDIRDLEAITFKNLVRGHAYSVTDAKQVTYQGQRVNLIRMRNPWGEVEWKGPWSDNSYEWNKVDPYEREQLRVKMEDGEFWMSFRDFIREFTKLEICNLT", "assay": "Calpastatin inhibition assay, hydrolysis by μI-II", "assay_type": "biochemical", "conditions": "mean ±s.e.m.", "procedure": "as §1"}, "calpain": {"system": "calpain", "conditions": "human sequence; Betts & Anagli (2004); cited from earlier work"}, "[4]": {"molecular_target": "calpastatin repeat 1 E177Δ mutant (UniProt P27321)", "sequence (P27321 whole entry, looked up, stated change not applied)": "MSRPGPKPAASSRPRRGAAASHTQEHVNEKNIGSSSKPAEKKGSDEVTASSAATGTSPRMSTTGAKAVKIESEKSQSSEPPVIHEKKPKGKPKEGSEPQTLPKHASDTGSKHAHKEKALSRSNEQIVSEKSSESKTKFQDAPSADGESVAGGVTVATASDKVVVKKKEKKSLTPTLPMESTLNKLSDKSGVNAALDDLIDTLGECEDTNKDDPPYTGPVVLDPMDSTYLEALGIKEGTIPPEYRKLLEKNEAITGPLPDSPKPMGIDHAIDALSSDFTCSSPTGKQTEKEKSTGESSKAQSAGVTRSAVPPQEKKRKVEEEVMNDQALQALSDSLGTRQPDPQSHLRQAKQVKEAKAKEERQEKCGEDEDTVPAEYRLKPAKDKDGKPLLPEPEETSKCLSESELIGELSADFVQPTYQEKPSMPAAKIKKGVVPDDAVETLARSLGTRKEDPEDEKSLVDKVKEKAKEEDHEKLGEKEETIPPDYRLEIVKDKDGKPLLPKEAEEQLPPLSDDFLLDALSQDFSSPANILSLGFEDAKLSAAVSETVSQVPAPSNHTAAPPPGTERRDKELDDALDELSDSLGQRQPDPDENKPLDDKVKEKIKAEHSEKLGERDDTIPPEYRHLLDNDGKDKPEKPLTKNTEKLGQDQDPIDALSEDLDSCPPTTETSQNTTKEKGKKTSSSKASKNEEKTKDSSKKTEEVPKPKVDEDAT"}, "[5]": {"molecular_target": "calpastatin repeat 1 K176/E177Δ mutant (UniProt P27321)", "sequence (P27321 whole entry, looked up, stated change not applied)": "as above"}, "[6]": {"molecular_target": "calpastatin repeat 1 K176Δ mutant (UniProt P27321)", "sequence (P27321 whole entry, looked up, stated change not applied)": "as above"}, "heterodimeric calpains": {"system": "heterodimeric calpains", "conditions": "Wendt, et al. (2004); cited from earlier work"}, "m-calpain [7]": {"system": "m-calpain", "assay": "Hydrolysis activity of m-calpain mutants at the DI-II-DIII interface", "assay_type": "biochemical, rat", "conditions": "Ala substitution in DIII of 80 kDa subunit", "procedure": "as §1"}, "[8]": {"molecular_target": "protease core from µ-calpain (µI-II) (UniProt P97571 29-356)", "sequence (P97571 29-356 limits assumed)": "as the sequence (P97571 29-356 limits assumed) above", "assay": "cell-based or functional assay"}, "[9]": {"molecular_target": "m-calpain (catalytically active heterodimer used in hydrolysis and autolysis assays) (rat), Q07009", "assay": "cell-based or functional assay"}},
  "note": "Where a chain is given by its changes, count along the chain named. In names and notes the source's numbering stands.",
  "data": [
    {"molecule": "Ac-ALGIKEGTIPPEYRKLLE-NH2 [peptide B1, Ac-ALGIKEGTIPPEYRKLLE-NH2]", "values": [
      {"measurement": "IC50", "setting": "m-calpain [1]; mean ±s.e.m.", "value": "0.41 ± 0.08", "unit": "µM"}
    ]},
    {"molecule": "rat calpastatin inhibitory repeat 1, short construct Ala134-Thr219 (86 residues) (from UniProt P27321 134-219)", "values": [
      {"measurement": "IC50 of inhibition of µI-II activity", "setting": "[2]", "value": 155, "unit": "µM"}
    ]},
    {"molecule": "calpastatin repeat 1 fragment AB (57 residues, ending at Lys190) (from UniProt P27321 134-190) (peptide)", "values": [
      {"measurement": "IC50 of inhibition of µI-II activity", "setting": "[2]", "value": 80.5, "unit": "µM"}
    ]},
    {"molecule": "AB: 57-residue calpastatin repeat 1 fragment with regions A and B, ending at Lys190 (SKTKFQDAPSADGESVAGGVTVATASDKVVVKKKEKKSLTPTLPMESTLNKLSDKSG)", "values": [
      {"measurement": "IC50 values toward m-calpain (in words)", "setting": "m-calpain [1]", "value": "low nanomolar"},
      {"measurement": "IC50", "setting": "[3]", "value": "80.5 ± 10.2", "unit": "µM"}
    ]},
    {"molecule": "Asp^163-Gly^174: N-terminal peptide of the 27-residue region B peptide, human sequence (Betts & Anagli 2004) (TLGGPEETEEEN; UniProt P20810 163-174, looked up, fragment)", "values": [
      {"measurement": "calpain inhibition when the intact 27-residue peptide is replaced by N- and C-terminal peptides", "setting": "calpain", "value": "abolished"}
    ]},
    {"molecule": "calpastatin repeat 1 fragment BC (57 residues, Asp163-Thr219) (from UniProt P27321 163-219) (peptide)", "values": [
      {"measurement": "IC50 of inhibition of µI-II activity", "setting": "[2]", "value": 122, "unit": "µM"}
    ]},
    {"molecule": "m-calpain (catalytically active heterodimer used in hydrolysis and autolysis assays)", "values": [
      {"measurement": "autolysis / proteolysis of the complex (SDS-PAGE)", "setting": "[4]", "value": "all mutants succumbed to proteolysis within the kink"},
      {"measurement": "autolysis / proteolysis of the complex (SDS-PAGE)", "setting": "[5]", "value": "all mutants succumbed to proteolysis within the kink"},
      {"measurement": "autolysis / proteolysis of the complex (SDS-PAGE)", "setting": "[6]", "value": "all mutants succumbed to proteolysis within the kink"}
    ]},
    {"molecule": "B1", "values": [
      {"measurement": "inhibition of calpain", "setting": "m-calpain [1]; FIG. 7 legend, concerted binding to peripheral domains and active site", "value": "low-nanomolar"},
      {"measurement": "affinity of inhibition of heterodimeric calpains", "setting": "heterodimeric calpains", "value": "nanomolar"}
    ]},
    {"molecule": "B2", "values": [
      {"measurement": "m-calpain activity after substitution (fraction of wild type)", "setting": "m-calpain [7]", "value": "one-half"}
    ]},
    {"molecule": "B3", "values": [
      {"measurement": "Ca2+ requirement", "setting": "m-calpain [7]", "value": "doubled"},
      {"measurement": "m-calpain activity after substitution (fraction of wild type)", "setting": "m-calpain [7]", "value": "one-quarter"}
    ]},
    {"molecule": "B4", "values": [
      {"measurement": "Ca2+ requirement", "setting": "m-calpain [7]", "value": "doubled"},
      {"measurement": "decrease in m-calpain activity", "setting": "m-calpain [7]", "value": "> 60", "unit": "fold"}
    ]},
    {"molecule": "Ac-ALGIKEGTIPPEYRKLLE-NH2", "note": "[Peptide B1 Ac-ALGIKEGTIPPEYRKLLE-NH2]", "values": [
      {"measurement": "IC50 of inhibition of µI-II activity", "setting": "[8]", "value": 24.5, "unit": "µM"}
    ]},
    {"molecule": "Ac-ALGIKEGTIPPEYRKLLE-NH2", "note": "[Peptide B1 Ac-…-NH2]", "values": [
      {"measurement": "IC50 of inhibition of substrate hydrolysis by m-calpain", "setting": "[9]", "value": 0.41, "unit": "µM"}
    ]},
    {"molecule": "B5", "values": [
      {"measurement": "IC50 values toward m-calpain (in words)", "setting": "m-calpain [1]", "value": "low nanomolar"},
      {"measurement": "IC50", "setting": "[3]", "value": "155 ± 16.3", "unit": "µM"}
    ]}
  ]
}
